The supplement of paper PMC7877785
± gives the uncertainty stated by the source.

Experiment: self-splicing fitness, log relative to wild type (ln ratio); higher = more splicing; Tetrahymena group I intron in knt gene, E. coli kanamycin selection, DiMSum; sequences stand for … in CUCUCU…GGAGGGAAAAGUUAUCAGGCAUGCACCUGGUAGCUAGUCUUUAAACCAAUAGAUUGCAUCGGUUUAAAAGGCAAGACCGUCAAAUUGCGGGAAAGGGGUCAACAGCCGUUCAGUACCAAGUCUCAGGGGAAACUUUGAGAUGGCCUUGCAAAGGGUAUGGUAAUAAGCUGACGGACAUGGUCCUAACCACGCAGCCAAGUCCUAAGUCAACAGAUCUUCUGUUGAUAUGGAUGCAGUUCACAGACUAAAUGUCGGUCGGGGAAGAUGUAUUCUUCUCAUAAGAUAUAGUCGGACCUCUCCUUAAUGGGAGCUAGCGGAUGAAGUGAUGCAACACUGGAGCCGCUGGGAACUAAUUUGUAUGCGAAAGUAUAUUGAUUAGUUUUGGAGUACUCGUGGUCG
Procedure, shortened: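 A randomised library covering all eight P1ex-region intron nucleotides was built with the intron in the knt kanamycin-resistance gene on pET-22b(+) and held in E. coli BL21(DE3). Cells were grown overnight at 37°C or 30°C on LB agar, with or without 25 μg/mL kanamycin, plus 100 μg/mL carbenicillin, 50 μM IPTG and 0.2% rhamnose, and pooled colonies were amplicon-sequenced on an Illumina HiSeq 2500. DiMSum fitness is the error-weighted combination of wild-type-normalised replicate fold changes, kanamycin versus none.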

| Sequence | self-splicing fitness (ln) (30 °C) | self-splicing fitness (ln) (37 °C) |
| --- | --- | --- |
| CUUCAGCAAUAUUACGUACC | -2.36 ± 0.3 | -2.12 ± 0.24 |
| GUAUAGCAAUAUUACGAAUU | -3.2 ± 0.22 | -1.13 ± 0.18 |
| GGACAGCAAUAUUACGUACG | -0.876 ± 0.12 | 0.399 ± 0.18 |
| AGGGAGCAAUAUUACGGGGU | -3.27 ± 0.36 | -3.01 ± 0.31 |
| UGUCAGCAAUAUUACGGAGC |  | -2.89 ± 0.43 |
| GAUCAGCAAUAUUACGCGGG | -2.31 ± 0.1 | -1.33 ± 0.11 |
| AAAAAGCAAUAUUACGUCGC | -2.7 ± 0.26 | -1.34 ± 0.17 |
| UCACAGCAAUAUUACGGACC |  | -2.14 ± 0.29 |
| GAGAAGCAAUAUUACGGCGA | 0.0811 ± 0.15 | -0.777 ± 0.12 |
| CUCUAGCAAUAUUACGGGCG | -2.25 ± 0.17 | -2.36 ± 0.19 |
| GAUGAGCAAUAUUACGCGGA | -2.72 ± 0.12 | -2.15 ± 0.11 |
| AGUGAGCAAUAUUACGUAUG |  | -2.56 ± 0.32 |
| UGCUAGCAAUAUUACGACAU | -2.027 ± 0.016 | -1.05 ± 0.034 |
| GCUCAGCAAUAUUACGUCCU | -1.16 ± 0.11 | -0.818 ± 0.14 |
| CGGGAGCAAUAUUACGUGAC | -2.16 ± 0.32 | -2.9 ± 0.44 |
| UUAUAGCAAUAUUACGCGAU | -2.8 ± 0.37 | -2.23 ± 0.46 |
| UUUGAGCAAUAUUACGGCGU | -3.7 ± 0.26 | -1.9 ± 0.2 |
| UAGGAGCAAUAUUACGUCUC | -2.51 ± 0.49 |  |
| AGACAGCAAUAUUACGCAAG | -2.89 ± 0.11 | -0.553 ± 0.1 |
| AGUAAGCAAUAUUACGGACA | -0.314 ± 0.091 | -0.393 ± 0.11 |

| Sequence | self-splicing fitness (ln) (30 °C) | self-splicing fitness (ln) (37 °C) |
| --- | --- | --- |
| UGCUAGCAAUAUUACGCCGA | -2.48 ± 0.25 | -1 ± 0.19 |
| AUACAGCAAUAUUACGGGGG | -3.43 ± 0.25 | -2.84 ± 0.25 |
| AAUCAGCAAUAUUACGGUAU | 0.192 ± 0.063 | 0.705 ± 0.088 |
| GAGUAGCAAUAUUACGCAUA | -2.47 ± 0.25 | -1.54 ± 0.24 |
| CUGAAGCAAUAUUACGGGUA | -3.21 ± 0.15 | -3.96 ± 0.42 |
| CGACAGCAAUAUUACGGCGC | -3.37 ± 0.24 | -0.977 ± 0.15 |
| GUAUAGCAAUAUUACGUCCC | -1.75 ± 0.12 | -0.594 ± 0.16 |
| ACUUAGCAAUAUUACGGGAG | -1.75 ± 0.072 | -1.3 ± 0.085 |
| UGACAGCAAUAUUACGCUGC | -4.45 ± 0.25 | -2.65 ± 0.18 |
| UUGGAGCAAUAUUACGUGGC | -3.14 ± 0.24 | -0.804 ± 0.25 |
| CUAUAGCAAUAUUACGGUUC | -3.27 ± 0.25 | -2.12 ± 0.39 |
| AUGAAGCAAUAUUACGACUA | 0.0947 ± 0.059 | -0.133 ± 0.059 |
| UGAUAGCAAUAUUACGCCAC |  | -0.614 ± 0.29 |
| UUAGAGCAAUAUUACGAAAU | -3.77 ± 0.34 | -3.04 ± 0.47 |
| UCGGAGCAAUAUUACGGAGG | -3.68 ± 0.46 | -1.98 ± 0.34 |
| GUAGAGCAAUAUUACGUGCG | -1.13 ± 0.081 | 0.0284 ± 0.12 |
| GAUAAGCAAUAUUACGAAUC | -3.17 ± 0.25 | -2.16 ± 0.25 |
| GUCGAGCAAUAUUACGUGGU | -3.5 ± 0.19 | -2.8 ± 0.19 |
| GCACAGCAAUAUUACGUCAG | -2.44 ± 0.12 | -2.48 ± 0.21 |
| GUUUAGCAAUAUUACGGGGC | -2.67 ± 0.33 |  |
